Laboratory results: patent US20200239543A1 (ALX ONCOLOGY, published 2020)
Changes are numbered by the printed parent chain. Names and notes keep the numbering of the source. Each block holds one molecule with its values, some of them ahead of it.

Assays:
[1] = molecular target: T1, human Fcγ receptor RI (CD64) (human, UniProt P12314 16-288); assay: SPR (ProteOn XPR36), biotinylated Fc construct on NLC chip, hFcγR as analyte, KD,app
T1 construct: bought recombinant protein; also called hFcγRI; hFcγR
T1 sequence (P12314 16-288 limits assumed): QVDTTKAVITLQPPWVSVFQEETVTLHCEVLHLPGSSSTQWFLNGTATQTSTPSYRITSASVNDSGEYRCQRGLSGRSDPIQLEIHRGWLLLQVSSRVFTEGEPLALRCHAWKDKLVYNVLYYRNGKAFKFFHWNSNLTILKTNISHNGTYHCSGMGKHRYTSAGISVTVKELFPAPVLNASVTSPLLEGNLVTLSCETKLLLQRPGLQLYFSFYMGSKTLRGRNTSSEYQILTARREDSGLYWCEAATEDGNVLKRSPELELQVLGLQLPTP

[2] = molecular target: T2, human Fcγ receptor RIIA (CD32a) (human, UniProt P12318 36-218); assay: as above
T2 construct: bought recombinant protein; also called hFcγR
T2 sequence (looked up): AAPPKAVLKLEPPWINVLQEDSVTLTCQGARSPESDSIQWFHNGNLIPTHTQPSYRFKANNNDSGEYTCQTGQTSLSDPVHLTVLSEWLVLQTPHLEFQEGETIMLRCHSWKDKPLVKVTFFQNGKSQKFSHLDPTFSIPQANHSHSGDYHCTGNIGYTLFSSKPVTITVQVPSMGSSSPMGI

[3] = molecular target: T3, human Fcγ receptor RIIB/C (CD32b/c) (human, UniProt P31994 46-217); assay: as above
T3 construct: bought recombinant protein; also called CD32c; hFcγR
T3 sequence (looked up): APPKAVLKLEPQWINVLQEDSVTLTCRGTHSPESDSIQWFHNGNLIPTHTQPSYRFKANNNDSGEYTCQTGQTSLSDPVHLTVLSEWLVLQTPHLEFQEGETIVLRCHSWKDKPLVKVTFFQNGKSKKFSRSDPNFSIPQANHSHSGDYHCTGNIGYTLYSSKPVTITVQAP

[4] = molecular target: T4, human Fcγ receptor RIIIA (CD16a) (human, UniProt P08637 17-208); assay: as above
T4 construct: bought recombinant protein; also called hFcγR
T4 sequence (P08637 17-208 limits assumed): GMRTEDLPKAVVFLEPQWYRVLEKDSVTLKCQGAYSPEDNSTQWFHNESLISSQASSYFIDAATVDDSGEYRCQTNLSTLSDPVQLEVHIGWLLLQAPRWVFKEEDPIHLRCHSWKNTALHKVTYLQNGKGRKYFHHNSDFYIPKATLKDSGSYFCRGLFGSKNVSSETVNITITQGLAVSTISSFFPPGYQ

[5] = molecular target: T1, human Fcγ receptor RI (CD64); assay: SPR (ProteOn XPR36), biotinylated Fc construct on NLC chip, hFcγR as analyte
[6] = molecular target: T3, human Fcγ receptor RIIB/C (CD32b/c); assay: as above
[7] = molecular target: T2, human Fcγ receptor RIIA (CD32a); assay: as above
[8] = molecular target: T4, human Fcγ receptor RIIIA (CD16a); assay: as above
human CD47 [9] = molecular target: T5, human CD47 (human, UniProt Q08722 19-139); assay: SPR, 25 C, 1:1 Langmuir fit
T5 construct: extracellular domain; also called CD47 ECD
T5 sequence (Q08722 19-139 limits assumed): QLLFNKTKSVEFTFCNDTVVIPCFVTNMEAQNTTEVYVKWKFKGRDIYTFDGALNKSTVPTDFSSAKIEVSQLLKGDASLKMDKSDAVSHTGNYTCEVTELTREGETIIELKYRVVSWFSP

mouse CD47 [10] = molecular target: T6, mouse CD47 (mouse, UniProt Q61735 19-140, limits assumed); assay: SPR, 25 C, 1:1 Langmuir fit
T6 construct: also called mouse CD47 protein
T6 sequence (looked up): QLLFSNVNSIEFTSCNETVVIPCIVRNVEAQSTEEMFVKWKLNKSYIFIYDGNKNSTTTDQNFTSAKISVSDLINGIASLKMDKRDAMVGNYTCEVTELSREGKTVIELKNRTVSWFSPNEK

human CD47 [11] = molecular target: T5, human CD47; assay: SPR as in Example 1
human CD47 [12] = molecular target: T5, human CD47; assay: SPR; protein made in mammalian cell
human CD47 [13] = molecular target: T5, human CD47; assay: SPR, 25 C, 1:1 Langmuir fit; remark: listed apart in the source
human CD47 [14] = molecular target: T5, human CD47; assay: SPR (Biacore T100 and ProteOn XPR36)
rat CD47 = molecular target: T7, rat CD47 (rat, UniProt P97829 19-140, limits assumed); assay: SPR (Biacore T100 and ProteOn XPR36)
T7 sequence (looked up): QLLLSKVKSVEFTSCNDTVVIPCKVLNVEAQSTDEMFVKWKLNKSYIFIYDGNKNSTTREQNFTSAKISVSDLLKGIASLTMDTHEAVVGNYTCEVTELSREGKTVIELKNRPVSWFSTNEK

mouse CD47 [15] = molecular target: T6, mouse CD47; assay: SPR (Biacore T100 and ProteOn XPR36)
[16] = molecular target: T8, EGFR-ECD (epidermal growth factor receptor extracellular domain produced in HEK293 cells) (UniProt P00533 25-645, limits assumed); assay: SPR (Proteon GLC chip), EGFR-ECD injected in the second injection over construct A bound to immobilised CD47
T8 construct: extracellular domain

binding result [5]: no binding (tested: 5000 nM) | binding result [6]: no binding (tested: 5000 nM) | binding result [7]: no binding (tested: 5000 nM) | binding result [8]: no binding (tested: 5000 nM) | Kd (human CD47 [9]): 0.0104 nM | Kd (mouse CD47 [10]): 33.2 nM | Kd (human CD47 [11]): 0.0351 nM
B1: SIRP-α D1 variant fused to Fc variant IgG1 L234A, L235A, G237A, N297A, SEQ ID NO: 96 (Fc fusion)
chain: EEELQIIQPDKSVLVAAGETATLRCTITSLFPVGPIQWFRGAGPGRVLIYNQRQGPFPRVTTVSDTTKRNNMDFSIRIGNITPADAGTYYCIKFRKGSPDDVEFKSGAGTELSVRAKPSDKTHTCPPCPAPEAAGAPSVFLFPPKPKDTLMISRTPEVTCVVVDVSHEDPEVKFNWYVDGVEVHNAKTKPREEQYASTYRVVSVLTVLHQDWLNGKEYKCKVSNKALPAPIEKTISKAKGQPREPQVYTLPPSREEMTKNQVSLTCLVKGFYPSDIAVEWESNGQPENNYKTTPPVLDSDGSFFLYSKLTVDKSRWQQGNVFSCSVMHEALHNHYTQKSLSLSPGK

Kd [1]: 8000 nM | Kd [2]: 2300 nM | binding result [6]: no binding (tested: 5000 nM) | binding result [8]: no binding (tested: 5000 nM)
B2: SIRP-α Fc construct with Fc variant IgG1_AAA (L234A, L235A, G237A), SEQ ID NO: 124 (Fc fusion)
chain: B1 chain with A196N

Kd (human CD47 [9]): 6.79 nM | Kd (mouse CD47 [10]): 6.01 nM | Kd (human CD47 [14]): 1.65 nM | Kd (rat CD47): 4.59 nM | Kd (mouse CD47 [15]): 0.612 nM
B4: SIRP-α D1 variant polypeptide of SEQ ID NO: 210 (receptor)
chain: EEELQIIQPDKSVLVAAGETATLRCTITSLFPVGPIQWFRGAGPGRELIYNQRDGPFPRVTTVSDTTKRNNMDFSIRIGAITPADAGTYYCVKFRKGIPDDVEFKSGAGTELSVRAKPS

Kd (human CD47 [9]): 4.46 nM | Kd (mouse CD47 [10]): 4.11 nM | Kd (human CD47 [14]): 1.01 nM | Kd (rat CD47): 2.26 nM | Kd (mouse CD47 [15]): 0.371 nM
B10: SIRP-α D1 variant polypeptide of SEQ ID NO: 209 (receptor)
chain: B4 chain with F31Y

Kd (human CD47 [9]): 5.26 nM | Kd (mouse CD47 [10]): 3.33 nM | Kd (human CD47 [14]): 0.967 nM | Kd (rat CD47): 1.49 nM | Kd (mouse CD47 [15]): 0.288 nM
B12: SIRP-α D1 variant polypeptide of SEQ ID NO: 206 (receptor)
chain: B4 chain with F31R

binding result [16]: no binding | Kd (human CD47 [14]): 0.139 nM
B13: SIRP-α-Fc fusion, homodimer of SEQ ID NO: 136 (Fc fusion)
chain: EEELQIIQPDKSVLVAAGETATLRCTITSLFPVGPIQWFRGAGPGRELIYNQREGPFPRVTTVSDTTKRNNMDFSIRIGAITPADAGTYYCVKFRKGSPDDVEFKSGAGTELSVRAKPSDKTHTCPPCPAPEAAGAPSVFLFPPKPKDTLMISRTPEVTCVVVDVSHEDPEVKFNWYVDGVEVHNAKTKPREEQYASTYRVVSVLTVLHQDWLNGKEYKCKVSNKALPAPIEKTISKAKGQPREPQVYTLPPSREEMTKNQVSLTCLVKGFYPSDIAVEWESNGQPENNYKTTPPVLDSDGSFFLYSKLTVDKSRWQQGNVFSCSVMHEALHNHYTQKSLSLSPG

binding result [5]: no binding (tested: 5000 nM) | binding result [6]: no binding (tested: 5000 nM) | binding result [7]: no binding (tested: 5000 nM) | binding result [8]: no binding (tested: 5000 nM)
B15: SIRP-α Fc construct with Fc variant IgG2_N297A, SEQ ID NO: 128 (Fc fusion)
chain: EEELQIIQPDKSVLVAAGETATLRCTITSLFPVGPIQWFRGAGPGRVLIYNQRQGPFPRVTTVSDTTKRNNMDFSIRIGNITPADAGTYYCIKFRKGSPDDVEFKSGAGTELSVRAKPSERKCCVECPPCPAPPVAGPSVFLFPPKPKDTLMISRTPEVTCVVVDVSHEDPEVQFNWYVDGVEVHNAKTKPREEQFASTFRVVSVLTVVHQDWLNGKEYKCKVSNKGLPAPIEKTISKTKGQPREPQVYTLPPSREEMTKNQVSLTCLVKGFYPSDIAVEWESNGQPENNYKTTPPMLDSDGSFFLYSKLTVDKSRWQQGNVFSCSVMHEALHNHYTQKSLSLSPGK

Continued, molecule first:

Molecule: Fc variant construct IgG4_S228P, E233P, F234V, L235A, delG236 (Fc fusion)
Kd [1]: 2100 nM | Kd [2]: 1600 nM

Molecule: Fc variant construct IgG4_S228P, L235E (Fc fusion)
Kd [1]: 60 nM | Kd [2]: 1200 nM | Kd [3]: 1100 nM | Kd [4]: 2400 nM

Molecule: Fc variant construct IgG4_S228P (Fc fusion)
Kd [1]: 1 nM | Kd [2]: 810 nM | Kd [3]: 850 nM

B3: SIRP-α D1 variant polypeptide of SEQ ID NO: 71 (receptor)
chain: B4 chain with I6V, I27A, D54Q, T66L, A80N, I98S
notes: engineered SIRP-α D1 domain
Kd (human CD47 [12]): 4.94 nM | Kd (human CD47 [13]): 4.94 nM

B5: SIRP-α D1 variant polypeptide of SEQ ID NO: 75 (receptor)
chain: B4 chain with I6V, D54E, T66L, A80N, I98S
notes: engineered SIRP-α D1 domain
Kd (human CD47 [12]): 1.33 nM | Kd (human CD47 [13]): 1.33 nM

B6: SIRP-α D1 variant polypeptide of SEQ ID NO: 76 (receptor)
chain: B4 chain with I6V, I27A, D54E, T66L, A80N, I98S
notes: engineered SIRP-α D1 domain
Kd (human CD47 [12]): 7.41 nM | Kd (human CD47 [13]): 7.41 nM

B7: SIRP-α D1 variant polypeptide of SEQ ID NO: 73 (receptor)
chain: B4 chain with I6V, D54E, A80N, I98S
notes: engineered SIRP-α D1 domain
Kd (human CD47 [12]): 0.448 nM | Kd (human CD47 [13]): 0.448 nM

B8: SIRP-α D1 variant polypeptide of SEQ ID NO: 74 (receptor)
chain: B4 chain with D54E, A80N, I98S
notes: engineered SIRP-α D1 domain
Kd (human CD47 [12]): 0.276 nM | Kd (human CD47 [13]): 0.276 nM

B9: SIRP-α D1 variant polypeptide of SEQ ID NO: 72 (receptor)
chain: B4 chain with D54E, T66L, A80N, I98S
notes: engineered SIRP-α D1 domain
Kd (human CD47 [12]): 0.738 nM | Kd (human CD47 [13]): 0.738 nM

B11: SIRP-α D1 variant polypeptide of SEQ ID NO: 77 (receptor)
chain: B4 chain with E47V, D54Q, A80N, V92I, I98S
notes: engineered SIRP-α D1 domain
Kd (human CD47 [12]): 0.114 nM | Kd (human CD47 [13]): 0.114 nM

B14: SIRP-α Fc construct with wildtype IgG2 Fc, SEQ ID NO: 126 (Fc fusion)
chain: B15 chain with A197N
Kd [1]: 700 nM | Kd [2]: 420 nM | binding result [6]: no binding (tested: 5000 nM) | binding result [8]: no binding (tested: 5000 nM)
